Reference: EP0714402B9, “POLYMER MODIFICATION” (PolyMASC Pharmaceuticals plc, priority 1993, dated 1995)

Tests used:
[1] = partition of amphotericin in dextran/PEG biphasic system; format: physicochemical; details: 5% dextran T-500, 5% PEG-6000, pH 6.8, absorbance at 330 nm
[2] = system: granulocyte-macrophage colony; experiment: granulocyte-macrophage colony assay (CFUgm) of GM-CSF growth stimulating activity; format: cell-based; details: versus comparable amounts of unmodified GM-CSF, 0.1 to 8 ng/ml, Fig.3a
Text: (§1) A better approach is to perform a correlation analysis, plotting the response obtained with equivalent amounts of the modified and unmodified materials on an XY plot. Identical activity gives datum points randomly distributed about the line representing equal activity (the dashed lines). […] In contrast, the presence of inhibitory material, with or without loss of intrinsic activity, produces a departure, usually without convergence to the upper extremity.
(§2) Datum points are means of colony counts in triplicate dishes for three independent experiments (Fig. 3a) or of two independent thymidine uptake experiments (Fig 3b).

[3] = 3H-thymidine uptake assay of GM-CSF growth stimulating activity; format: cell-based; details: versus comparable amounts of unmodified GM-CSF, 0.0006 to 1.0ng/ml, Fig.3b
Text: as §1, §2

[4] = degradation of 125I-GM-CSF on storage at 4°C, FPLC profiles; format: physicochemical; details: for relative amount of 125I, Peak 1: high molecular weight; for relative amount of 125I, Peak 2: intermediate fragments; for relative amount of 125I, Peak 3: low molecular weight
Text: This process is slowed by PEG modification. […] When supplied, ^125I-GM-CSF has little or no low molecular weight labelled species. […] There has been generation of intermediate and low molecular weight fragments in both samples. The former are commensurate in size with proteolytic cleavage products and the latter either with free iodine or very small fragments (i.e. < circa 1kDa). Pegylation reduces the loss of high molecular weight species.

[5] = blood clearance after subcutaneous injection with [125I]GM-CSF tracer; format: in vivo, BALB/c, male, 6-8 week-old mice; details: late clearing component; for fold increase of t1/2 over the control figure: figures in parentheses; for t1/2: subcutaneous, […] body weight, mice
Description: BALB/c, male, 6-8 week-old mice, weighing approximately 20g, were pooled into groups of three per condition, with adlib access to food and water. The reaction products were evaluated by FPLC and the proportions of individual species were estimated by fitting summated Gaussian curves to the FPLC profiles and estimating the area under the curve corresponding to each individual peak and expressing this as a % of the total area for the whole FPLC profile (Table 4b). The inventors have previously established that the individual peaks seen at low TMPEG concentrations (peaks 0, 1, 2 and 3) correspond to GM-CSF, PEG1-GM-CSF, PEG2-GM-CSF, PEG3-GM-CSF, respectively. At high TMPEG concentrations the peaks are broader and less well resolved thus fitting of individual Gaussian curves over all regions of the FPLC profile may not be possible. Thus peak 3 and the peaks for more highly substituted GM-CSF (potentially PEG4-7-GM-CSF) have been pooled. The peak eluting with the void volume peak is well resolved from the PEG4-7-GM-CSF and presumably represents aggregates, the area of this peak was used to estimate the proportion of aggregated material (Table 4b).
The different PEGylated samples and unmodified GM-CSF (Hoechst), all containing <4% [^125I]GM-CSF (Amersham, 1222 Ci/mmol) to serve as a tracer, were adminstrated at a dose of 0.0524µg in 100µl (3.45 x 10^-12 mole; equivalent to 2.5µg/kg body weight) by subcutaneous injection. The amount of TMPEG concomitantly administered is also indicated in Table 4a (MPEG has been shown not to influence t1/2, but does influence egress from the subcutaneous site). Up to eight 25µl tail vein blood samples were collected from each mouse using capillary tubes at various time points ranging between 10 minutes and 80 hours, to give a minimum of three samples per time point. Samples from the capillary tubes were washed immediately into 1ml of PBS containing 50 I.U. of heparin. Radioactivity was determined using a gamma counter (LKB 1270 Rackgamma) results being shown in Fig. 6a (open circles for untreated material, other symbols as indicated on the figure). Clearances for the materials of reactions A and B were clearly biphasic, presumably reflecting the large proportion of unmodified material remaining in these preparations (Table 4b). Half-lives were calculated using linear regression (log concentration versus time) for the slower clearing component if biphasic elimination was present (solid lines Figure 6a; dotted lines give the 95% confidence intervals).

[6] = tissue distribution, organ:blood concentration ratios; format: in vivo, mice; details: organ:blood concentration ratios versus GM-CSF, Fig.6b
Description: In order to establish the contributions to extended t1/2 we examined the tissue distribution of material prepared in an identical manner to reaction C, using an identical dose. At each of the times indicated, one aminal was sacrificed and organs/tissue including kidney, spleen, liver, lung, heart and femur were recovered and radioactivity was measured as above. […] The dotted and dashed lines indicate the blood levels of GM-CSF and PEG-GM-CSF respectively. The filled circles and open circles are the organ concentrations of PEG-GM-CSF and GM-CSF respectively. […] This is somewhat surprising since circa 24% of the reaction C mixture represents PEG1-GM-CSF (i.e. material below the renal threshold). […] Thus the degree of substitution desirable for individual targets will have to be assessed on a case-by-case basis. Table 4(A)

For `C[C@@H]1[C@H](O)[C@@H](C)/C=C/C=C/C=C/C=C/C=C/C=C/C=C/[C@H](O[C@@H]2O[C@H](C)[C@@H](O)[C@H](N)[C@@H]2O)C[C@@H]2O[C@](O)(C[C@@H](O)C[C@@H](O)[C@H](O)CC[C@@H](O)C[C@@H](O)CC(=O)O[C@H]1C)C[C@H](O)[C@H]2C(=O)O` [control, amphotericin], the “% material in the top (PEG-rich) phase” value [1] was 4.9 ± 0.2%.

For “Comparative Example 1: gm-CSF PEGylated with TMPEG made by a previously described method (WO90/04606, Example 1) [reference compound]”, the “growth stimulating activity as assessed by granulocyte-macrophage colony assay” value [2] was “additional inhibitory activity” and the “growth stimulating activity as assessed by thymidine uptake” value [3] was “loss of activity without significant inhibitory material”.

For “PEG-CM-CSF: 125I-GM-CSF exposed to TMPEG at a molar ratio of 305:1”, the “relative amount of 125I, Peak 1” value ([4]; After 1 Month Storage at 4°C) was 45.8, the “relative amount of 125I, Peak 2” value ([4]; After 1 Month Storage at 4°C) was 8.9 and the “relative amount of 125I, Peak 3” value ([4]; After 1 Month Storage at 4°C) was 36.3. For the same compound, the “relative amount of 125I, Peak 1” value ([4]; Before Storage) was 81.1, the “relative amount of 125I, Peak 2” value ([4]; Before Storage) was 0 and the “relative amount of 125I, Peak 3” value ([4]; Before Storage) was 12.4.

For “Reaction A: PEG-modified GM-CSF preparation, GM-CSF 0.524 µg/ml reacted with TMPEG 6.46 mg/ml”, the “fold increase of t1/2 over the control figure” value (“fold increase” for short) [5] was 7.2 fold and the t1/2 [5] was 11.7 h.

With “Reaction B: PEG-modified GM-CSF preparation, GM-CSF 0.524 µg/ml reacted with TMPEG 19.75 mg/ml” the “fold increase” value [5] was 11.1 fold and the t1/2 [5] was 18.1 h.

With “Reaction C: PEG-modified GM-CSF preparation, GM-CSF 0.524 µg/ml reacted with TMPEG 197.5 mg/ml” the “fold increase” value [5] was 10.3 fold, the t1/2 [5] was 16.8 h and the renal accumulation [6] was “substantially reduced”.

With “Reaction D: PEG-modified GM-CSF preparation, GM-CSF 0.524 µg/ml reacted with TMPEG 459.7 mg/ml; contains >50% of aggregates” the “fold increase” value [5] was 15.3 fold and the t1/2 [5] was 25.1 h.

For “gm-CSF PEGylated using the process of Example 1: gm-CSF coupled with TMPEG made by the process of the invention”, the “growth stimulating activity as assessed by granulocyte-macrophage colony assay” value [2] was “no significant loss” and the “growth stimulating activity as assessed by thymidine uptake” value [3] was “no significant loss”.
